Assay results from patent publication US20260217779A1 (Chugai, published 2026).

B1: hCXCL11-G1T4k.one//VHn-G1T4h.one.H435R (Fc fusion)
chain 1: FPMFKRGRCLCIGPGVKAVKVADIEKASIMYPSNNCDKIEVIITLKENKGQRCLNPKSKQARLIIKKVERKNFEPKSSDKTHTCPPCPAPELRRGPSVFLFPPKPKDTLMISRTPEVTCVVVDVSHEDPEVKFNWYVDGVEVHNAKTKPREEQYNSTYRVVSVLTVLHQDWLNGKEYKCKVSNKGLPSSIEKTISKAKGQPREPQVCTLPPSREEMTKNQVSLWCLVKGFYPSDIAVEWESNGQPENNYKTTPPVLDSDGSFFLYSKLTVDKSRWQEGNVFSCSVMHEALHNHYTQKSLSLSP
chain 2: EPKSSDKTHTCPPCPAPELRRGPSVFLFPPKPKDTLMISRTPEVTCVVVDVSHEDPEVKFNWYVDGVEVHNAKTKPREEQYNSTYRVVSVLTVLHQDWLNGKEYKCKVSNKGLPSSIEKTISKAKGQPREPQVYTLPPSRCEMTKNQVSLSCAVKGFYPSDIAVEWESNGQPENNYKTTPPVLDSDGSFFLVSKLTVDKSRWQEGNVFSCSVMHEALHNRYTQKSLSLSP
B2: hCXCL11.0003-G1T4k.one//VHn-G1T4h.one.H435R (Fc fusion)
chain 1: FAMFKRGRCLCIGPGVKAVKVADIEKASIMYPSNNCDKIEVIITLKENKGQRCLNPKSKQARLIIKKVERKNFEPKSSDKTHTCPPCPAPELRRGPSVFLFPPKPKDTLMISRTPEVTCVVVDVSHEDPEVKFNWYVDGVEVHNAKTKPREEQYNSTYRVVSVLTVLHQDWLNGKEYKCKVSNKGLPSSIEKTISKAKGQPREPQVCTLPPSREEMTKNQVSLWCLVKGFYPSDIAVEWESNGQPENNYKTTPPVLDSDGSFFLYSKLTVDKSRWQEGNVFSCSVMHEALHNHYTQKSLSLSP
chain 2: EPKSSDKTHTCPPCPAPELRRGPSVFLFPPKPKDTLMISRTPEVTCVVVDVSHEDPEVKFNWYVDGVEVHNAKTKPREEQYNSTYRVVSVLTVLHQDWLNGKEYKCKVSNKGLPSSIEKTISKAKGQPREPQVYTLPPSRCEMTKNQVSLSCAVKGFYPSDIAVEWESNGQPENNYKTTPPVLDSDGSFFLVSKLTVDKSRWQEGNVFSCSVMHEALHNRYTQKSLSLSP
B3: hCXCL11.0004-G1T4k.one//VHn-G1T4h.one.H435R (Fc fusion)
chain 1: FDMFKRGRCLCIGPGVKAVKVADIEKASIMYPSNNCDKIEVIITLKENKGQRCLNPKSKQARLIIKKVERKNFEPKSSDKTHTCPPCPAPELRRGPSVFLFPPKPKDTLMISRTPEVTCVVVDVSHEDPEVKFNWYVDGVEVHNAKTKPREEQYNSTYRVVSVLTVLHQDWLNGKEYKCKVSNKGLPSSIEKTISKAKGQPREPQVCTLPPSREEMTKNQVSLWCLVKGFYPSDIAVEWESNGQPENNYKTTPPVLDSDGSFFLYSKLTVDKSRWQEGNVFSCSVMHEALHNHYTQKSLSLSP
chain 2: EPKSSDKTHTCPPCPAPELRRGPSVFLFPPKPKDTLMISRTPEVTCVVVDVSHEDPEVKFNWYVDGVEVHNAKTKPREEQYNSTYRVVSVLTVLHQDWLNGKEYKCKVSNKGLPSSIEKTISKAKGQPREPQVYTLPPSRCEMTKNQVSLSCAVKGFYPSDIAVEWESNGQPENNYKTTPPVLDSDGSFFLVSKLTVDKSRWQEGNVFSCSVMHEALHNRYTQKSLSLSP
B4: hCXCL11.0005-G1T4k.one//VHn-G1T4h.one.H435R (Fc fusion)
chain 1: FEMFKRGRCLCIGPGVKAVKVADIEKASIMYPSNNCDKIEVIITLKENKGQRCLNPKSKQARLIIKKVERKNFEPKSSDKTHTCPPCPAPELRRGPSVFLFPPKPKDTLMISRTPEVTCVVVDVSHEDPEVKFNWYVDGVEVHNAKTKPREEQYNSTYRVVSVLTVLHQDWLNGKEYKCKVSNKGLPSSIEKTISKAKGQPREPQVCTLPPSREEMTKNQVSLWCLVKGFYPSDIAVEWESNGQPENNYKTTPPVLDSDGSFFLYSKLTVDKSRWQEGNVFSCSVMHEALHNHYTQKSLSLSP
chain 2: EPKSSDKTHTCPPCPAPELRRGPSVFLFPPKPKDTLMISRTPEVTCVVVDVSHEDPEVKFNWYVDGVEVHNAKTKPREEQYNSTYRVVSVLTVLHQDWLNGKEYKCKVSNKGLPSSIEKTISKAKGQPREPQVYTLPPSRCEMTKNQVSLSCAVKGFYPSDIAVEWESNGQPENNYKTTPPVLDSDGSFFLVSKLTVDKSRWQEGNVFSCSVMHEALHNRYTQKSLSLSP
B5: hCXCL11.0006-G1T4k.one//VHn-G1T4h.one.H435R (Fc fusion)
chain 1: FFMFKRGRCLCIGPGVKAVKVADIEKASIMYPSNNCDKIEVIITLKENKGQRCLNPKSKQARLIIKKVERKNFEPKSSDKTHTCPPCPAPELRRGPSVFLFPPKPKDTLMISRTPEVTCVVVDVSHEDPEVKFNWYVDGVEVHNAKTKPREEQYNSTYRVVSVLTVLHQDWLNGKEYKCKVSNKGLPSSIEKTISKAKGQPREPQVCTLPPSREEMTKNQVSLWCLVKGFYPSDIAVEWESNGQPENNYKTTPPVLDSDGSFFLYSKLTVDKSRWQEGNVFSCSVMHEALHNHYTQKSLSLSP
chain 2: EPKSSDKTHTCPPCPAPELRRGPSVFLFPPKPKDTLMISRTPEVTCVVVDVSHEDPEVKFNWYVDGVEVHNAKTKPREEQYNSTYRVVSVLTVLHQDWLNGKEYKCKVSNKGLPSSIEKTISKAKGQPREPQVYTLPPSRCEMTKNQVSLSCAVKGFYPSDIAVEWESNGQPENNYKTTPPVLDSDGSFFLVSKLTVDKSRWQEGNVFSCSVMHEALHNRYTQKSLSLSP
B6: hCXCL11.0007-G1T4k.one//VHn-G1T4h.one.H435R (Fc fusion)
chain 1: FGMFKRGRCLCIGPGVKAVKVADIEKASIMYPSNNCDKIEVIITLKENKGQRCLNPKSKQARLIIKKVERKNFEPKSSDKTHTCPPCPAPELRRGPSVFLFPPKPKDTLMISRTPEVTCVVVDVSHEDPEVKFNWYVDGVEVHNAKTKPREEQYNSTYRVVSVLTVLHQDWLNGKEYKCKVSNKGLPSSIEKTISKAKGQPREPQVCTLPPSREEMTKNQVSLWCLVKGFYPSDIAVEWESNGQPENNYKTTPPVLDSDGSFFLYSKLTVDKSRWQEGNVFSCSVMHEALHNHYTQKSLSLSP
chain 2: EPKSSDKTHTCPPCPAPELRRGPSVFLFPPKPKDTLMISRTPEVTCVVVDVSHEDPEVKFNWYVDGVEVHNAKTKPREEQYNSTYRVVSVLTVLHQDWLNGKEYKCKVSNKGLPSSIEKTISKAKGQPREPQVYTLPPSRCEMTKNQVSLSCAVKGFYPSDIAVEWESNGQPENNYKTTPPVLDSDGSFFLVSKLTVDKSRWQEGNVFSCSVMHEALHNRYTQKSLSLSP

molecular target: T1, human CXCR3 (hCXCR3) on Ba/F3 transfectant cells (human, UniProt P49682 1-368); assay: cell-based or functional assay
T1 sequence: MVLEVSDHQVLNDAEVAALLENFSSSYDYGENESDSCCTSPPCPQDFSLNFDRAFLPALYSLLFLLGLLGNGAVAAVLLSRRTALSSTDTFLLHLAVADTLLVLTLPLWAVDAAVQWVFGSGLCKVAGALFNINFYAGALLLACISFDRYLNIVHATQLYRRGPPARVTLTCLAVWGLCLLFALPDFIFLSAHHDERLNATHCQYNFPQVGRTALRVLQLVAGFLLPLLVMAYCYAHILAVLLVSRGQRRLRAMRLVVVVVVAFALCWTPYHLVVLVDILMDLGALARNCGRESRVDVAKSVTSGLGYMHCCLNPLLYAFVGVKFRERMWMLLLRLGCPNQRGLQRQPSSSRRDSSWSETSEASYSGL

Point of comparison: B1, “Luminescence value at 33 nM” value 7.68e+06. Against it:
- B2 — lower, 3.76e+06
- B3 — lower, 3.15e+06
- B4 — lower, 3.11e+06
- B5 — lower, 326000
- B6 — lower, 3.47e+06

Point of comparison: B2, “Luminescence value at 100 nM” value 1.17e+07. Against it:
- B1 — higher, 1.67e+07
- B3 — lower, 9.44e+06
- B4 — lower, 9.59e+06
- B5 — lower, 4.55e+06
- B6 — lower, 1.02e+07

Point of comparison: B2, “Luminescence value at 300 nM” value 1.12e+07. Against it:
- B1 — higher, 1.24e+07
- B3 — lower, 5.24e+06
- B4 — lower, 6.03e+06
- B5 — lower, 9.79e+06
- B6 — lower, 9.71e+06

Point of comparison: B3, “Activity retention rate at 33 nM” value 41%. Against it:
- B2 — higher, 49%
- B4 — lower, 40%
- B5 — lower, 4%
- B6 — higher, 45%

Point of comparison: B2, “Activity retention rate at 100 nM” value 70%. Against it:
- B3 — lower, 57%
- B4 — lower, 57%
- B5 — lower, 27%
- B6 — lower, 61%

Point of comparison: B3, “Activity retention rate at 300 nM” value 42%. Against it:
- B2 — higher, 90%
- B4 — higher, 49%
- B5 — higher, 79%
- B6 — higher, 78%
